Source: patent US11946041B2, “Modification of polypeptides” (BicycleRD Limited, priority 2017, dated 2024)

What was measured:
CCR4 [1] = target: T1, CCR4 (Homo sapiens, UniProt P51679); assay: PathHunter eXpress CCR4 CHO-K1 β-Arrestin GPCR Assay, agonist format; type: cell-based
T1 construct: host or cells: CHO-K1
T1 sequence (P51679 1-360): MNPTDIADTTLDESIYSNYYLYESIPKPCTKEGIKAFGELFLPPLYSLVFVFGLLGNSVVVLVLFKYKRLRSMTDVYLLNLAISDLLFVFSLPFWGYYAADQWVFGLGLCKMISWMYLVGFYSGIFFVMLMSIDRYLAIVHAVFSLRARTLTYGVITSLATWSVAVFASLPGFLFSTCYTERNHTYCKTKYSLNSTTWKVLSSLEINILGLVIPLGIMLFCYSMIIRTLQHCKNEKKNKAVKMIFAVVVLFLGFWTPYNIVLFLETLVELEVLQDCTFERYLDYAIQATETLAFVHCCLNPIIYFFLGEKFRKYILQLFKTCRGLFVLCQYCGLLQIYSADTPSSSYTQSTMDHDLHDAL
Description: (§1) The aim of the present experiment was to analyze if if these peptides are functional using a Discoverx Assay, the Beta-Arrestin recruitment assay, to identify agonism or antagonism in the selected peptides.
(§2) Standard protocols used: • PathHunter® eXpress CCR4 CHO-K1 β-Arrestin GPCR Assay. 100 dp (1×96-well)
(§3) The experiment was carried using the manufacturer instructions.
The concentration was increased to test for response at high concentration.

CCR4 [2] = target: T1, CCR4; assay: PathHunter eXpress CCR4 CHO-K1 β-Arrestin GPCR Assay, antagonist format with CCL22; type: cell-based
Description: as §1, §2, §3
We therefore used the assay in an antagonist format, using 10 nM CCL22.
We repeated this experiment lowering the concentration of CCL22 from 10 nM to 1 nM to show a full inhibition curve.

Sequence: ACLSCARHGNQCA [24-12-00-N001, bicyclic peptide ligand, TATA scaffold, from CCR4 cell-based selection]
- Raw Data (CCR4 [1]; 0.006 nM): 31416
- Raw Data (CCR4 [1]; 0.02 nM): 30201
- Raw Data (CCR4 [1]; 0.06 nM): 30311
- Raw Data (CCR4 [1]; 0.17 nM): 27668
- Raw Data (CCR4 [1]; 0.51 nM): 34202
- Raw Data (CCR4 [1]; 1.5 nM): 31584
- Raw Data (CCR4 [1]; 4.6 nM): 28872
- Raw Data (CCR4 [1]; 13.9 nM): 27830
- Raw Data (CCR4 [1]; 41.7 nM): 26640
- Raw Data (CCR4 [1]; 125 nM): 25288
- Raw Data (CCR4 [1]; 375 nM): 22486
- Raw Data (CCR4 [1]; high concentration, 0.001 uM): 10679
- Raw Data (CCR4 [1]; high concentration, 0.003 uM): 11299
- Raw Data (CCR4 [1]; high concentration, 0.008 uM): 11106
- Raw Data (CCR4 [1]; high concentration, 0.023 uM): 12540
- Raw Data (CCR4 [1]; high concentration, 0.1 uM): 13063
- Raw Data (CCR4 [1]; high concentration, 0.2 uM): 13783
- Raw Data (CCR4 [1]; high concentration, 0.6 uM): 13041
- Raw Data (CCR4 [1]; high concentration, 1.9 uM): 13661
- Raw Data (CCR4 [1]; high concentration, 5.6 uM): 12922
- Raw Data (CCR4 [1]; high concentration, 16.7 uM): 12407
- Raw Data (CCR4 [1]; high concentration, 50 uM): 12457
- Raw Data (CCR4 [2]; 1 nM CCL22, 0.001 uM): 205771
- Raw Data (CCR4 [2]; 1 nM CCL22, 0.003 uM): 230925
- Raw Data (CCR4 [2]; 1 nM CCL22, 0.008 uM): 216507
- Raw Data (CCR4 [2]; 1 nM CCL22, 0.023 uM): 200429
- Raw Data (CCR4 [2]; 1 nM CCL22, 0.1 uM): 190863
- Raw Data (CCR4 [2]; 1 nM CCL22, 0.2 uM): 196279
- Raw Data (CCR4 [2]; 1 nM CCL22, 0.6 uM): 195159
- Raw Data (CCR4 [2]; 1 nM CCL22, 1.9 uM): 184486
- Raw Data (CCR4 [2]; 1 nM CCL22, 5.6 uM): 225342
- Raw Data (CCR4 [2]; 1 nM CCL22, 16.7 uM): 123432
- Raw Data (CCR4 [2]; 1 nM CCL22, 50 uM): 101311
- Raw Data (CCR4 [2]; 10 nM CCL22, 0.001 uM): 162386
- Raw Data (CCR4 [2]; 10 nM CCL22, 0.003 uM): 192263
- Raw Data (CCR4 [2]; 10 nM CCL22, 0.008 uM): 193071
- Raw Data (CCR4 [2]; 10 nM CCL22, 0.023 uM): 176223
- Raw Data (CCR4 [2]; 10 nM CCL22, 0.1 uM): 168443
- Raw Data (CCR4 [2]; 10 nM CCL22, 0.2 uM): 197817
- Raw Data (CCR4 [2]; 10 nM CCL22, 0.6 uM): 207362
- Raw Data (CCR4 [2]; 10 nM CCL22, 1.9 uM): 197426
- Raw Data (CCR4 [2]; 10 nM CCL22, 5.6 uM): 164381
- Raw Data (CCR4 [2]; 10 nM CCL22, 16.7 uM): 163675
- Raw Data (CCR4 [2]; 10 nM CCL22, 50 uM): 134429

Sequence: ACQTLCNTAEDIRCA [24-16-00-N001, bicyclic peptide ligand, TBMB scaffold, from CCR4 cell-based selection]
- Raw Data (CCR4 [1]; 0.006 nM): 23153
- Raw Data (CCR4 [1]; 0.02 nM): 23757
- Raw Data (CCR4 [1]; 0.06 nM): 25748
- Raw Data (CCR4 [1]; 0.17 nM): 25062
- Raw Data (CCR4 [1]; 0.51 nM): 25030
- Raw Data (CCR4 [1]; 1.5 nM): 24736
- Raw Data (CCR4 [1]; 4.6 nM): 22899
- Raw Data (CCR4 [1]; 13.9 nM): 20756
- Raw Data (CCR4 [1]; 41.7 nM): 20583
- Raw Data (CCR4 [1]; 125 nM): 20012
- Raw Data (CCR4 [1]; 375 nM): 20361
- Raw Data (CCR4 [1]; high concentration, 0.001 uM): 10927
- Raw Data (CCR4 [1]; high concentration, 0.003 uM): 11906
- Raw Data (CCR4 [1]; high concentration, 0.008 uM): 12502
- Raw Data (CCR4 [1]; high concentration, 0.023 uM): 12701
- Raw Data (CCR4 [1]; high concentration, 0.1 uM): 13482
- Raw Data (CCR4 [1]; high concentration, 0.2 uM): 13403
- Raw Data (CCR4 [1]; high concentration, 0.6 uM): 14951
- Raw Data (CCR4 [1]; high concentration, 1.9 uM): 14247
- Raw Data (CCR4 [1]; high concentration, 5.6 uM): 14263
- Raw Data (CCR4 [1]; high concentration, 16.7 uM): 13237
- Raw Data (CCR4 [1]; high concentration, 50 uM): 13817
- Raw Data (CCR4 [2]; 1 nM CCL22, 0.001 uM): 244145
- Raw Data (CCR4 [2]; 1 nM CCL22, 0.003 uM): 250550
- Raw Data (CCR4 [2]; 1 nM CCL22, 0.008 uM): 249215
- Raw Data (CCR4 [2]; 1 nM CCL22, 0.023 uM): 247868
- Raw Data (CCR4 [2]; 1 nM CCL22, 0.1 uM): 246609
- Raw Data (CCR4 [2]; 1 nM CCL22, 0.2 uM): 225038
- Raw Data (CCR4 [2]; 1 nM CCL22, 0.6 uM): 213774
- Raw Data (CCR4 [2]; 1 nM CCL22, 1.9 uM): 213016
- Raw Data (CCR4 [2]; 1 nM CCL22, 5.6 uM): 186217
- Raw Data (CCR4 [2]; 1 nM CCL22, 16.7 uM): 150731
- Raw Data (CCR4 [2]; 1 nM CCL22, 50 uM): 107480
- Raw Data (CCR4 [2]; 10 nM CCL22, 0.001 uM): 155442
- Raw Data (CCR4 [2]; 10 nM CCL22, 0.003 uM): 169611
- Raw Data (CCR4 [2]; 10 nM CCL22, 0.008 uM): 142089
- Raw Data (CCR4 [2]; 10 nM CCL22, 0.023 uM): 158472
- Raw Data (CCR4 [2]; 10 nM CCL22, 0.1 uM): 157585
- Raw Data (CCR4 [2]; 10 nM CCL22, 0.2 uM): 159872
- Raw Data (CCR4 [2]; 10 nM CCL22, 0.6 uM): 147765
- Raw Data (CCR4 [2]; 10 nM CCL22, 1.9 uM): 143871
- Raw Data (CCR4 [2]; 10 nM CCL22, 5.6 uM): 140714
- Raw Data (CCR4 [2]; 10 nM CCL22, 16.7 uM): 167890
- Raw Data (CCR4 [2]; 10 nM CCL22, 50 uM): 138655
